The target of assay [1] is T1, biotinylated recombinant human trimeric ARG1 enzyme (Avi-huARG1-His10) (human, UniProt P05089 1-322, biotinylated in HTRF and streptavidin BLI assays).
T1 construct: also called Human ARG1; recombinant ARG1
T1 sequence: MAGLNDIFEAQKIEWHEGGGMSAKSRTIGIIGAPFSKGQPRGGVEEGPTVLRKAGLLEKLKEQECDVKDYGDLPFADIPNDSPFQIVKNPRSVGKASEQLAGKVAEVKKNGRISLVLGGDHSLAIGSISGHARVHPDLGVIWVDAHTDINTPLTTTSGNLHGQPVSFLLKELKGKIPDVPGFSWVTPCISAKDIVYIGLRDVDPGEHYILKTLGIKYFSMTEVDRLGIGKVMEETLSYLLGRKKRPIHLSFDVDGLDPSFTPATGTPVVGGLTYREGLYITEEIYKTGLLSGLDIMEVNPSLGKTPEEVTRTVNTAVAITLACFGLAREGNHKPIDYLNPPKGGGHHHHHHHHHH
The assay is described as follows: BLI (OctetRED), His-tagged ligand on anti-His surface. The method, then:
The binding of affinity-matured antibodies to human ARG1 was also tested on the OctetRED system using a screening assay which stably captures […] as the ligand on an anti-His surface. The Fabs were typically tested in an analyte range of 1.8 to 120 nM, with an association time of 5 minutes and a dissociation time of 10 minutes. Sensors were regenerated using 10 mM glycine pH 1.5 after each cycle.

In assay [2] the target is T2, biotinylated recombinant human trimeric ARG2 enzyme (Avi-huARG2-His10) (human, UniProt P78540 23-354, biotinylated).
T2 construct: also called avi-Arg2-His10; bio-ARG2
T2 chain: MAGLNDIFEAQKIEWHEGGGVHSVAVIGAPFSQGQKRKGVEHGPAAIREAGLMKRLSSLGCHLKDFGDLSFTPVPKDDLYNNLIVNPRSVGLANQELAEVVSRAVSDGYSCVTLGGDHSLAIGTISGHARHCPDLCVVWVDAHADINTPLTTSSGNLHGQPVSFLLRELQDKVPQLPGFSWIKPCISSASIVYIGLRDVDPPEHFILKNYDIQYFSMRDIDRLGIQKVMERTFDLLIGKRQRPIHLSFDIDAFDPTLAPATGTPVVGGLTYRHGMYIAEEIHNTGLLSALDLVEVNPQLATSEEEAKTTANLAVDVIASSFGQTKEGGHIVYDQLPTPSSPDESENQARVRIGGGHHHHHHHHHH
The assay is described as follows: BLI (OctetRED), biotinylated ARG2 on streptavidin, Fab as analyte. The method, then: (§1) An Octet Kinetics Buffer (PBS containing 0.01% BSA and 0.002% Tween20) is typically used as the diluent buffer for the analyte samples and as the flow buffer during the dissociation phase. The experimental data is recorded over time as shift in interference pattern (nm) over time, which is directly proportional to the optical thickness at the biosensor tip, which in turn is an approximate measure of the mass of analyte bound. The proprietary Octet Data Analysis software package can then be used to process data and fit binding models to the data sets. Returned association (kₐ, M⁻¹ s⁻¹) and dissociation (kd, s⁻¹) rate constants allow calculation of dissociation (KD, M) affinity constants.
(§2) Typically, an analyte titration range of 1.8 to 120 nM was used.

The target of assay [3] is T3, biotinylated recombinant cynomolgus monkey trimeric ARG2 enzyme (Avi-cynoARG2-His10) (cynomolgus monkey, UniProt P78540 23-354 (human entry), biotinylated).
T3 construct: also called cynomolgus ARG2
T3 chain: T2 chain with A189P, R231Q, H273E, K325R, D333G
As to the kind of experiment: BLI (OctetRED), biotinylated cyno ARG2 on streptavidin, Fab as analyte. The method, then:
as §1, §2

Assay [4] has as its target T1, biotinylated recombinant human trimeric …. The assay is described as follows: BLI (OctetRED), His-tagged ligand on anti-His surface. The source holds these as a separate data set.
Assay [5] addresses T2, biotinylated recombinant human trimeric …. As to the kind of experiment: BLI (OctetRED) extended assay, bio-ARG2 on streptavidin, Fab as analyte, 1:1 fit. The method, then:
(§3) The affinities of the second-generation antibodies to human ARG2 were measured on the OctetRED system. A screening assay which stably captures His-tagged ARG2 as the ligand on an anti-His surface was utilised to screen the second-generation candidates as Fabs at an analyte range of 1.8 to 120 nM, with an association time of 5 minutes and a dissociation time of 10 minutes. Sensors were regenerated using 10 mM glycine pH 1.5 after each cycle. Based on this assay, six candidates with estimated affinities in the sub-nanomolar range were identified, and they were further profiled using an extended assay which is more suitable for antibodies of high affinities. In the extended assay, the association and dissociation times were extended to 10 and 40 minutes respectively, using a lower Fab analyte titration range of 0.47 to 30 nM, on a streptavidin surface which captures bio-ARG2 as the ligand. The sensorgrams were reference subtracted and fitted to the 1:1 binding model to estimate their binding affinities using the Octet analysis software.

In assay [6] the target is T3, biotinylated recombinant cynomolgus …. The assay is described as follows: BLI (OctetRED) extended assay, biotinylated cyno ARG2 on streptavidin, Fab as analyte, 1:1 fit. As for the experimental part: as §3
The affinities of some of these antibodies to cynomolgus ARG2 were determined using the same assay, and the derived kinetic parameters are shown in Table 21.

Numbering of substitutions follows the chain as printed. Read-outs that look alike come from different tables or passages of the source.

Usually Kd stands for the concentration at which binding is half-saturated. Usually koff stands for the first-order rate constant of dissociation. For orientation: kon means a measure of how fast the partners come together.

B1: C0021133 Fab (Fab, V domains shown)
VH: EVQLLESGGGLVQPGGSLRLSCAASGFTFRYDHHVWVRQAPGKGLEWVSAISGSGGSTYYADSVKGRFTISRDNSKNTLYLQMNSLRAEDTAVYYCARLRADLGLYMDLWGRGTLVTVSS
VL: QSVLTQPPSVSAAPGQKVTVSCSGSSSNIGNHYVSWYQQLPGTAPKLLIYDTTVLSSGIPDRFSGSKSGTSATLGITGLQTGDEADYYCGTWDELTSNLVFGGGTKLTVL
notes: Human Fab
With B1, the binding result in assay [1] is given as “no binding (tested: 1.8 to 120 nM Fab)”. In addition, in assay [2], the Kd stood at 2050 pM, the koff came out at 0.000449 s⁻¹ and the association rate constant (kon) amounted to 219000 M⁻¹ s⁻¹. Besides, in assay [3], the Kd is 1670 pM, the off-rate constant (koff) is 0.000549 s⁻¹ and the kon was 328000 M⁻¹ s⁻¹.

B2: C0021022 Fab (Fab, V domains shown)
VH: EVQLLESGGGLVQPGGSLRLSCAASGFTFSSYAMSWVRQAPGKGPEWVSAISGFSPYYADSVKGRFTISRDNSKNTLYLQMNSLRAEDTAVYYCARLRADLGLYMDLWGRGTLVTVSS
VL: B1 VL with V20I, T52N, T53S, V54E, L55R, S56P, E94S, L95S, T96L, N98A
notes: Human Fab
As to B2, the binding result in assay [1] is on record as “no binding (tested: 1.8 to 120 nM Fab)”. Moreover, in assay [2], the equilibrium dissociation constant (Kd) was 2730 pM, the off-rate constant (koff) was determined as 0.00112 s⁻¹ and the kon is 412000 M⁻¹ s⁻¹. Moreover, in assay [3], the equilibrium dissociation constant (Kd) amounted to 1660 pM, the off-rate constant (koff) is 0.00117 s⁻¹ and the association rate constant (kon) was 706000 M⁻¹ s⁻¹.

B3: C0021181 Fab (Fab, V domains shown)
VH: B1 VH with Q13R, G26E, H33Y, G66S
VL: B1 VL with T19A, N31S, T52N, T53S, V54E, L55R, S56T, K106R
notes: Human Fab
Regarding B3, the binding result in assay [4] is listed as “no binding (tested: up to 120 nM Fab)”. Further, in assay [5], the Kd worked out at 288 pM, the off-rate (koff) amounted to 4.17e-05 s⁻¹ and the on-rate (kon) is 145000 M⁻¹ s⁻¹. For the same molecule, in assay [6], the Kd was found to be 173 pM, the off-rate constant (koff) stood at 4.43e-05 s⁻¹ and the kon turned out to be 257000 M⁻¹ s⁻¹.

B4: C0021155 Fab (Fab, V domains shown)
VH: B1 VH with A23E, H33Y, S63P
VL: B1 VL with Q1R, V20I, K106R
notes: Human Fab
As for B4, the binding result in assay [4] is on record as “no binding (tested: up to 120 nM Fab)”. In addition, in assay [5], the dissociation constant (Kd) was 358 pM, the koff came out at 5.67e-05 s⁻¹ and the kon was found to be 159000 M⁻¹ s⁻¹.

B5: C0021158 Fab (Fab, V domains shown)
VH: B1 VH with D32E, H33V, H34A, V35A, S54P, G55I, G56P, S57K, T58G
VL: B1 VL with V20I, T52N, T53S, V54E, L55R, S56T, S57A, I59V
notes: Human Fab
For the molecule B5, the binding result in assay [4] is “no binding (tested: up to 120 nM Fab)”. In assay [5], the Kd worked out at 173 pM, the koff is 4.54e-05 s⁻¹ and the on-rate (kon) came out at 262000 M⁻¹ s⁻¹. In assay [6], the Kd worked out at 108 pM, the koff was found to be 4.64e-05 s⁻¹ and the kon was 429000 M⁻¹ s⁻¹.

B6: C0021065 Fab (Fab, V domains shown)
VH: B2 VH with K74R
VL: B1 VL with V20I, T53D, V54H, L55M, S56A, E94S, L95S, T96L, N98A
notes: Human Fab
As to B6, the binding result in assay [1] is “no binding (tested: 1.8 to 120 nM Fab)”. In assay [2], the dissociation constant (Kd) stood at 1620 pM, the koff was determined as 0.000665 s⁻¹ and the on-rate (kon) worked out at 409000 M⁻¹ s⁻¹. Moreover, in assay [3], the dissociation constant Kd was 1270 pM, the koff was determined as 0.000782 s⁻¹ and the kon worked out at 617000 M⁻¹ s⁻¹.

B7: C0021144 Fab (Fab, V domains shown)
VH: B1 VH with H33Y
VL: B1 VL with Y33H, I59V
notes: Human Fab
As to B7, the binding result in assay [4] is “no binding (tested: up to 120 nM Fab)”. In assay [5], the Kd was 338 pM, the koff is 6.59e-05 s⁻¹ and the kon worked out at 195000 M⁻¹ s⁻¹.

The values are drawn from patent US20220403048A1 (CANCER RESEARCH TECHNOLOGY, published 2022).
